# US20260258115A1 (MAPP BIOPHARMACEUTICAL, published 2026)
# Numbering of substitutions follows the chain as printed.
# B1: ADI-41597 (antibody, V domains shown)
# VH: QVQLQESGPGLVKPSETLSLTCTVSGASVSSNNYYWSWIRQPPGKGLEWIGYIYYSGSTNYNASLKSRVTISVDTSKNQFSLKLSSVTAADTALYYCAGEHIFGVASPFEAPFDYWGQGTMVTVSS
# VL: SSELSQPPSVSVAPGKTARITCGGNNIGIKSVHWYQQKPGQAPVLVIYSDSDRPSGIPERFSGSNSGNTATLTITRVEAGDEADYYCQVWDSSSDHFVFGIGTKVTVL
# B2: ADI-41598 (antibody, V domains shown)
# VH: EVQLVESGPGLVKPSETLSLTCTVSGGSITPYYWSWIRQPPGKGLEWIGNISYSGSTTYNPSLKSRVTISVDRSKDQFSLRLRSVTAADTAVYYCARVVTLVLGVSLNDAFDIWGQGTMVTVSS
# VL: DIQMTQSPSSLSASVGDRVTITCRASQSISRYLNWYQHKPGKAPILLIYAATTLESGVPPRFSGSGSGTDFSLTISSLQPEDFATYYCQQSYSVPLTFGGGTKLEIK
# B3: ADI-41599 (antibody, V domains shown)
# VH: EVQLLESGGGLVQPGGSLRLSCAASGFIFSNYEMNWVRQAPGKGLEWISHITPTGNSIYYADSVKGRFTISRDNAKNAQYLQMHSLRPDDTAIYYCARGEDPIAATGGFDSWGQGTLVTVSS
# VL: EIVLTQSPSSLSASVGDRVTIPRRSSQNVDKFLHWYQQRPGKAPKLLIYAAFSLQSGVPSRFSGSGSGTDFTLTISSLQPEDFATYYCQQSYSTPFTFGQGTKVEIK
# B4: ADI-41241 (antibody, V domains shown)
# VH: QVQLVQSGAEVKKPGASVQVSCKASGYTFTGDYMHWVRQAPGQGLEWMGRINPNSGGTNYAQKFQGRVTMTRDTSISTAYMELSRLRSDDTAVYYCARAAAEYSSSSPTSYYYMDVWGKGTTVTVSS
# VL: EIQMTQSPSSLSASVGDRVTITCRASQNIYSFLNWYQQKPGKAPKLLIYAASSLQSGVPSRFSGSGSATDFTLTISSLQPEDFATYYCQQSYSPPQITFGQGTKVDIK
# B5: ADI-41247 (antibody, V domains shown)
# VH: QVQLVQSGAEVKKPGASLQVSCKASGYTFTDSYFHWVRQAPGQGLEWMGRISPHSGGTNYAQKFQGRVTMTRDTSISTAYLELSRLRSDDTAVYYCATEGPRGPFRFDPWGQGTLVTVSS
# VL: NFMLTQPHSVSESPGKTVTISCTRSSGSIASNYVQWYQQRPGSSPTTVIYEDNQRPSGVPDRFSGSIDSSSNSASLTISGLMTEDEADYYCQSYDSSNWVFGGGTKLTVL
# B6: ADI-41235 (antibody, V domains shown)
# VH: QVQLQQWGAGLLKPSETLSLTCGVYGESFSGHYWSWIRQPPGKGLEWMGEIHHSGTTNYNPSLKSRVTISVDTSKNQFSLKLNSVTAADTAVYYCARNPAEDILTGYSPPFHYYYMDVWGKGTTVTVSS
# VL: QSVLTQPPSVSGAPGQRVTISCTGSSSNIGAGYDVHWYQQIPGTAPKLLIHSNNNRPSGVPDRFSGSKSGTSASLAITGLQAEDEADYYCQSYDSSLSVVFGGGTKLTVL
# B7: ADI-41238 (antibody, V domains shown)
# VH: EVQLLESGGGLVKPGGSLRLSCAASGFTFRDYYMSWIRQAPGKGLEWVSYISSSSSYTEYADSVKGRFTISRDNAKKSLYLQMNSLRTEDTAVYYCARVITQAGTGTTYYMDVWGKGTTVTVSS
# VL: B6 VL with A31T, I41L, H51Y, S52A, V99L
# B8: ADI-41250 (antibody, V domains shown)
# VH: QVQLQQWGAGLLKPSETLSLTCAVSGESLTGYFWSWIRQPPGKGLEWIGEVSHSGSTNYNPSLKSRVTMSVDTSKTQFSLKLNSVTAADTAVYYCARGYDYWSGTARYFDYWGQGILVTVSS
# VL: QPVLTQPASVSGSPGQSITISCTGTSSDVGGYNYVSWYQQHPGKAPKLMIYDVSNRPSGVSSRFSGSKSGNTASLTISGLQAEDEGDYYCSSYRSSTTSRVFGGGTKVTVL
# B9: ADI-41243 (antibody, V domains shown)
# VH: QVQLVQSRAEVKKPGESLKISCKGSLHSFSNNWIGWVRQMPGKGLEWMGIIFPDDSDTRYSPSFQGQVTISADKSISTAYLQWSSLKASDTAIYYCGTVVTLIQGVADWGQGTLVTVSS
# VL: QPVLTQPHSVSESPGKTVTISCTRSSGSIDSSYVQWYQQRPGSSPTTVIYEDNLRPSGVPDRFSGSIDSSSNSASLTISGLKTEDEAEYYCQSYDSSNPVVFGGGTKLTVL
# B10: ADI-41239 (antibody, V domains shown)
# VH: QITLKESGPTLVKPTQTLTLTCTFSGFSLTTTGVGVGWIRQPPGKALEWLALIYWDDDKRYSPSLKNRITITKDTSKKQVVLTMTNMDPADTATYYCAHISTVVTYDSSGSYYVLINWFDPWGQGTLVTVSS
# VL: not shown
# B11: ADI-41237 (antibody, V domains shown)
# VH: EVQLVESGGGLVKPGGSLRLSCAASGFTFSDYYMNWIRQAPGKGLEWVSDISPSSSYTNYADSVKGRFTISRDNAKNSLYLQMNSLRAEDTAMYYCARRGSCTGGVCSFDYWGQGTLVTVSS
# VL: QPGLTQPPSVSGAPGQRVTISCTGSSSNIGAGYDVNWYQQLPGTAPKLLIYDNSNRPSGVPDRFSGSKSGTSASLAITGLQAEDEADFYCQSYDSSLSGFVFGTGTKVTVL
# B12: ADI-41251 (antibody, V domains shown)
# VH: EVQLVESGGGLVKPGGSLRLSCAASGFTFSDYYMTWIRQAPGKGLEWVSNISGGSSYTNYADSVKGRFTISRDNAKNSVYLQMNSLRAEDTAVYYCARVGCSGGVCNFFLDYWGQGTLVTVSS
# VL: B11 VL with P2S, G3V, N36H, S54T, F88Y, F100Y
# B13: ADI-41245 (antibody, V domains shown)
# VH: QVQLVESGGGLVKPGGSLRLSCAASGFSFSAYYMSWIRQAPGKGLEWISNISGGSSYANYADSVEGRFTISRDNAKNSLYLQMNSLRAEDTAVYYCAREFQTYYYMDVWGKGTTVTVSS
# VL: B11 VL with G3V, D34E, N36H, D52G, S54N, F88Y, F100S, T104G, V108L
# B14: ADI-41244 (antibody, V domains shown)
# VH: QVTLKESGGGLIQPGGSLRLSCAVSGFTVSSKYMSWVRQAPGKGLEWVSVIYGGGSTYYTDSVKGRFTISRDNSNNTLYLQMNSLRAEDTAIYYCAREARSYNYDYVGNDAFDIWGQGTTVTVSS
# VL: DIVLTQTPDSLAVSLGERATINCKSSQSVLNNFNNKNYLAWYQQKPGQPPKLLIYWASTRESGVPDRFSGSGSGTDFTLTITSLQAEDVAIYYCQQYYRTPPYTFGQGTKVDIK
# B15: ADI-41253 (antibody, V domains shown)
# VH: EVQLVQSGPGLVKPSETLSLTCTVSGDSISSSDYSYYWGWIRQPPGKGLEWIASLSYSGKTYSQSSLKSRVIISVDTSKKQFSLKLSSVTAADTAVYYCAVTRCYVCTSEGDSFDMWGQGTMVTVSS
# VL: DIVLTQTPGTLSLSPGERATLSCRASQSISGNYLAWYQHKPGQAPRLLIYGASTRATGIPDRFSGSGSGTDFPLTISRLEPEDFAVYYCQQYATSPYTFGQGTKVDIK
# B16: ADI-41236 (antibody, V domains shown)
# VH: QVQLVQSGGGLVKPGGSLRLSCTASGFTFSDYYMDWIRQAPGKGLEWVSSISSSSTYTKYADSVKGRFTISRDNAKNSLFLQMNSLRAEDTAVYYCVRNLGPYCSSTSCFVFDYWGQGTLVTVSS
# VL: QSVLTQPPSVSGAPGQRVSISCTGSSSNIGAGYEVHWYKQVPGTAPRLLMYDNTNRPSGVPDRVSGSKSGTSASLAITGLQAEDEADYYCQSYDNSLNKSVFGGGTKVTVL
# B17: ADI-41248 (antibody, V domains shown)
# VH: QVQLVQSGGGVVQPGRSLRLSCAASGFTFSSYSMHWVRQAPGKGLEWMAVCWYDGSNIYYADSVKGRFTISRDNSKNTVYLQMNSLRAEDTAVYYCARDDRYCSGGTCLSAFDIWGQGTMVTVSS
# VL: ETTLTQSPSSLSASVGDRVTITCRASQSISSYLNWYQQKPGRAPKLLIYTTSSLQSGVSSRFSGSGSGTDFTLTINSLQPEDFATYYCQQSYSTPNTFGQGTKVEIK
# B18: ADI-41252 (antibody, V domains shown)
# VH: EVQLVQSGAEVKKPGESLKISCMGSGYNFPNYWIGWVRQMSGKGLEWMGIIYPDDSDTTYSPSFQGQVIFSADKSISTAYLQWSSLKASDTAMYFCVRLDKTTQIDFWGQGTLVTVSS
# VL: EIVLTQSPSSLSASVGDRVTITCQASQDISNYLNWYQQKPGKAPKLLIYDVSNLETGVPSRFSGSGSGTDFTFTISSLQPEDIATYYCQQHDNLPLTFGQGTRLEIK
# B19: ADI-41242 (antibody, V domains shown)
# VH: EVQLVESGGGVVQPGRSLRLSCAASGFPFSSYAMHWVRQAPGKGLEWVAVIWFEGNEKYFADSVEGRFTISRDNSKNTLYLQMNSLRAEDTARYYCARFYFGAFDIWGQGTLVTVSS
# VL: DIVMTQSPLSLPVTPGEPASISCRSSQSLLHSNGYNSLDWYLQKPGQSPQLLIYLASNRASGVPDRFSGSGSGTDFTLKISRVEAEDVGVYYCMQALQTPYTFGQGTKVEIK
# B20: ADI-41240 (antibody, V domains shown)
# VH: QVQLQQWGAGLLKPSETLSLICDVYGGSFSDYYWSWIRQSPGKGLEWIGEINHSGSTSFHPSLKSRISISIDTSNNQFSLNLSSMTAADTAVYYCARGTLRGYFDYWGQGTLVTVSS
# VL: EIVLTQSPSTLSAFVGDRVTITCRASQSISRWLAWYQQKPGKAPNLLISEASSLESGVPSRFSGSGSGTEFTLTISSLQPDDLGTYYCQQYNGYLWTFGQGTKVEIK
# B21: ADI-41249 (antibody, V domains shown)
# VH: QVQLVQSGAEVKKPGESLKISCQVSRDTSTTYWIGWVRQMPGKGLEWMGIIFPGDSDTRYSPSFQGQVTISADKSIMTAYLQLTSLKASDTAMYYCATQALRGAFDIWGQGTMVTVSS
# VL: DIRLTQSPSSLSASVGDRVTITCQASQDISNYLNWYQQKPGKAPKLLIYDASYLETGVPSRFSGSGSGTDFTFTISSLQPEDFATYYCQQYDDLLFTFGPGTKLEIK
# B22: ADI-41246 (antibody, V domains shown)
# VH: EVQLLESGPGLVKPSETLSLTCIVSGGSISSYNWNWIRQPPGKGLEWIGYIYNSGSTNYNPSLKSRVTISVDTSKNQFSLKLSSVTAADTAVYYCARYFDYGSGGFDYWGQGTLVTVSS
# VL: ETTLTQSPGTLSLSPGERATLSCRASQSVTSTYLAWYQQKPGQAPRLLIYGASSRATGIPDRFSGSGSGTDFTLTISRLEPEDFAVYYCQQFDSSLTFGGGTKVEIK
# Target: RSV F on RSV-A2 virus (Respiratory syncytial virus, RSV-A2, UniProt P03420 26-574)
# Assay: cell-based or functional assay
row,Binder,Neutralization IC50 (RSV subtype A) [µg/mL]
1,B1,0.173
2,B2,0.174
3,B3,0.637

# Target: RSV F on RSV-A2 virus (Respiratory syncytial virus (RSV-A2))
# Assay: cell-based or functional assay
row,Binder,Neutralization IC50 (RSV subtype A) [µg/mL]
1,B4,18.8
2,B5,> 25
3,B6,> 25
4,B7,0.13
5,B8,> 25
6,B9,> 25
7,B10,> 25
8,B11,0.04
9,B12,0.11
10,B13,0.71
11,B14,> 25
12,B15,0.03
13,B16,> 25
14,B17,> 25
15,B18,> 25
16,B19,> 25
17,B20,> 25
18,B21,0.01
19,B22,> 25
